Source: PMC4828686
Where “and” joins values, the source holds several entries; their conditions need not be identical. Equal entries are not always repeated.

Key:
[1] = target: GST-fused full-length kindlin-2 LK47/AA mutant (GST-K2LK47/AA) (human) (UniProt Q96AC1); assay: pull-down
[2] = target: Actin, purified (rabbit skeletal muscle; Cytoskeleton, Inc.) (rabbit) (UniProt P68135); assay: SPR
[3] = target: Actin, purified (rabbit skeletal muscle; Cytoskeleton, Inc.) (rabbit) (UniProt P68135); assay: ELISA
[4] = target: Actin, purified (rabbit skeletal muscle; Cytoskeleton, Inc.) (rabbit) (UniProt P68135); assay: co-sedimentation
[5] = target: Actin mutant that cannot polymerize (G-actin mimetic; Joel et al., 2004); assay: SPR

| Substance | Kd [2] | percent of the added protein in the actin pellet [4] | also measured |
| --- | --- | --- | --- |
| Actin, purified (rabbit skeletal muscle; Cytoskeleton, Inc.) (from UniProt P68135 1-377) (natural protein) |  |  | mean percent less actin pulled down than by WT K2 [1]: 75% |
| GST-fused full-length kindlin-2 LK47/AA mutant (GST-K2LK47/AA) (from UniProt Q96AC1 1-680) (natural protein) | 982 nM and 1580 nM |  | fold difference of the relative Kd against WT K2 [3]: 3 fold and 5 fold |
| α-actinin (natural protein) |  | 52% |  |
| GST-fused full-length kindlin-2 (GST-K2) (from UniProt Q96AC1 1-680) (natural protein) | 136 nM and 190 nM |  | Kd [5]: 124 nM |
| Full-length kindlin-2 (K2), GST tag removed by Factor Xa (from UniProt Q96AC1 1-680) (natural protein) |  | 36% and 30% to 54% (2×) |  |
